From publication PMC9486512 (Zoological Research, 2022) come the findings set out here.

Like-named read-outs stand apart in the source and are kept apart here. Ends that are not written are not given here.

For experiment [1], the target named is human Nav1.7 (hNav1.7) channel (Homo sapiens, UniProt Q15858). In words: Whole-cell patch-clamp inhibition of hNav1.7 currents. The class given is cell-based.
Experiment [2] addresses human voltage-gated sodium ion channel Nav1.7 (human).
Experiment [3] has the same target. The source holds these as a separate data set.
Experiment [4] shares this target. This is another data set of the same source.

Sequence of human voltage-gated sodium ion channel Nav1.7 (human) (Q15858 whole entry): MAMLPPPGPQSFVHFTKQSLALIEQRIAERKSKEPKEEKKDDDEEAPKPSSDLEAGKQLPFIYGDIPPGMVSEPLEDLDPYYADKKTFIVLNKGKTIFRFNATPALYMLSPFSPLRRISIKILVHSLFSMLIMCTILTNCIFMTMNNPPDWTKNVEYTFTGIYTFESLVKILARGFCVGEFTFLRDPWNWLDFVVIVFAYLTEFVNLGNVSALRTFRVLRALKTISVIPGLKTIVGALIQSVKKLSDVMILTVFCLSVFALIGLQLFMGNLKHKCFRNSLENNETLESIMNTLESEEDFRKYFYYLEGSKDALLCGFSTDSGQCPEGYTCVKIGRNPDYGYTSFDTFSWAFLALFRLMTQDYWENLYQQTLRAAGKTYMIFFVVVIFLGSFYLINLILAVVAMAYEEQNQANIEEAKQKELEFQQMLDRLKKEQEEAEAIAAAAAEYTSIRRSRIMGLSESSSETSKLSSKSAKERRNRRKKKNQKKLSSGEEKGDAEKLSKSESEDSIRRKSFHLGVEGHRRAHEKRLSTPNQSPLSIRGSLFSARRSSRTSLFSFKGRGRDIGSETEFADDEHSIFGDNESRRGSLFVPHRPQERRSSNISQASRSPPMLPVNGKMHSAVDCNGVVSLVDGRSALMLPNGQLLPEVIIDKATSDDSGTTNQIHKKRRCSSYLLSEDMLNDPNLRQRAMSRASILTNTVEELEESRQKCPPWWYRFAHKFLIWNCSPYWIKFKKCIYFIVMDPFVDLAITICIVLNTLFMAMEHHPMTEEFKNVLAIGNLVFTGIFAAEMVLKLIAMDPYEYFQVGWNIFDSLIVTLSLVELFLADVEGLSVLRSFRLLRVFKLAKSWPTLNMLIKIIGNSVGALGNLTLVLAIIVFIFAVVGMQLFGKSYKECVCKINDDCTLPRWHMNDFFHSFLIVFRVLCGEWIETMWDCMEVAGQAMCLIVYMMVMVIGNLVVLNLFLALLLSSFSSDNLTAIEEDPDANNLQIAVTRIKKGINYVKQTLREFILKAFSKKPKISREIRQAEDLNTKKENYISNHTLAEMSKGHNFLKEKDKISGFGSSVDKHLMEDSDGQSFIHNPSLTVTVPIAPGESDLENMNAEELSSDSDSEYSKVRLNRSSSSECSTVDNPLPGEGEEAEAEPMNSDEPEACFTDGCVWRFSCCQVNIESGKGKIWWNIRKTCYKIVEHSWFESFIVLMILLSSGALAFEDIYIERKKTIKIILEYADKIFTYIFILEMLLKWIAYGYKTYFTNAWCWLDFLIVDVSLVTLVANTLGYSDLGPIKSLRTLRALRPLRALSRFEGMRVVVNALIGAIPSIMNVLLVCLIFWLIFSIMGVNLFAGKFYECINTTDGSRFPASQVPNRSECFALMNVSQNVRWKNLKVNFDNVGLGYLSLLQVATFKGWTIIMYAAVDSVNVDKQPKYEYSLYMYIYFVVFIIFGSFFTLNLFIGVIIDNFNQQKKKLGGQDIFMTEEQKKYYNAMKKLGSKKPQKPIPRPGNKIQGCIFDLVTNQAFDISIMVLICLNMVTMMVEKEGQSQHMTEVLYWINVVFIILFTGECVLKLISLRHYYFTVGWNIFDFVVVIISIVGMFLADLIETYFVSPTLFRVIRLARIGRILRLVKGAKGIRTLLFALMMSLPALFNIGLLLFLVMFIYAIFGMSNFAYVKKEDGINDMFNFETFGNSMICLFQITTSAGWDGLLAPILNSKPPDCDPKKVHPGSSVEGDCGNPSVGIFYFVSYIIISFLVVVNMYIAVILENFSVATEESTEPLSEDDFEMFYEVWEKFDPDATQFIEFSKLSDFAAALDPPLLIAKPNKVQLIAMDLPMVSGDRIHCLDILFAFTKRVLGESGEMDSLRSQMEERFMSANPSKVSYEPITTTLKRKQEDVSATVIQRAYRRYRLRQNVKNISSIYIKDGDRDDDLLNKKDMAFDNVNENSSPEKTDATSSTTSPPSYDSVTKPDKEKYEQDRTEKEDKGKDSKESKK
Sequence of human Nav1.7 (hNav1.7) channel (Q15858 whole entry): as above

Consider “W30A: W30A mutant of Ca2a (ACLGFGEKCNPSNDKCCKSSSLVCSQKHKACKYDL; ends and bridges not checked; cysteine pairing not given here) [Peptide W30A]”, for which the “fold change in IC50 / affinity for Nav1.7 compared to WT Ca2a” value in experiment [1] (ratio of mutant IC50 to WT peptide IC50, hNav1.7 in HEK293T) is 20 fold. Regarding “K18A: K18A mutant of Ca2a (ACLGFGEKCNPSNDKCCASSSLVCSQKHKWCKYDL; ends and bridges not checked; cysteine pairing not given here) [Peptide K18A]”, the “inhibitory activity against Nav1.7 (in words)” value in experiment [1] (compared to Ca2a, WT hNav1.7 in HEK293T) is given as “retained most of its inhibitory activity”.

B1: truncated peptide T7 (from Ca2a) (peptide)
peptide: CLGFGEKCNPSDKCCKSSSVCSQKHKWCKY
The molecule B1 returned an IC50 of inhibition of hNav1.7 currents, whole-cell patch clamp, HEK293T in experiment [2] above 100 µmol/L.

B2: truncated peptide T8 (from Ca2a) (peptide)
peptide: CLGFGEKCPSNDKCCSSSLVCSQKHKWCKY
B2: the IC50 of inhibition of hNav1.7 currents, whole-cell patch clamp, HEK293T in experiment [2] was above 100 µmol/L.

B3: truncated peptide T13 (from Ca2a) (peptide)
peptide: CLGFGEKCNDKCCKLVCSQHKWCKY
B3 showed an IC50 of inhibition of hNav1.7 currents, whole-cell patch clamp, HEK293T in experiment [2] of 8.89 µmol/L.

B4: truncated peptide T2 (from Ca2a) (peptide)
peptide: CLGFGEKCNPSKCCKSLVCQKHKWCKY
Take B4: the IC50 of inhibition of hNav1.7 currents, whole-cell patch clamp, HEK293T in experiment [2] worked out at 16.5 µmol/L.

B5: truncated peptide T12 (from Ca2a) (peptide)
peptide: CLGFGEKCNPDCCKLVCSQKWCKY
With B5, in experiment [2], the IC50 of inhibition of hNav1.7 currents, whole-cell patch clamp, HEK293T was above 50 µmol/L.

B6: Ca2a K27A (peptide)
peptide: ACLGFGEKCNPSNDKCCKSSSLVCSQAHKWCKYDL
Turning to B6, the IC50 of inhibition of hNav1.7 currents, whole-cell patch clamp, HEK293T in experiment [3] is 4.07 µmol/L.

B7: Ca2a Y33K (peptide)
peptide: ACLGFGEKCNPSNDKCCKSSSLVCSQKHKWCKKDL
In experiment [4], B7 displayed an IC50 of inhibition of hNav1.7 currents, whole-cell patch clamp, HEK293T above 20 µmol/L.

B8: Ca2a W30K (peptide)
peptide: ACLGFGEKCNPSNDKCCKSSSLVCSQKHKKCKYDL
As for B8, in experiment [4], the IC50 of inhibition of hNav1.7 currents, whole-cell patch clamp, HEK293T is above 20 µmol/L.

B9: Ca2a H28R (peptide)
peptide: ACLGFGEKCNPSNDKCCKSSSLVCSQKRKWCKYDL
In experiment [4], B9 displayed an IC50 of inhibition of hNav1.7 currents, whole-cell patch clamp, HEK293T of 14.9 µmol/L.

B10: Ca2a F5K (peptide)
peptide: ACLGKGEKCNPSNDKCCKSSSLVCSQKHKWCKYDL
B10 showed an IC50 of inhibition of hNav1.7 currents, whole-cell patch clamp, HEK293T in experiment [4] above 20 µmol/L.

B11: Ca2a H28K (peptide)
peptide: ACLGFGEKCNPSNDKCCKSSSLVCSQKKKWCKYDL
The molecule B11 displayed an IC50 of inhibition of hNav1.7 currents, whole-cell patch clamp, HEK293T in experiment [4] above 20 µmol/L.

B12: Ca2a K32A (peptide)
peptide: ACLGFGEKCNPSNDKCCKSSSLVCSQKHKWCAYDL
With B12, the IC50 of inhibition of hNav1.7 currents, whole-cell patch clamp, HEK293T in experiment [3] was above 30 µmol/L.

B13: truncated peptide T9 (from Ca2a) (peptide)
peptide: CLGFGEKCNPSNDCCKSSSLVCSQKHKWCKY
B13 registered an IC50 of inhibition of hNav1.7 currents, whole-cell patch clamp, HEK293T in experiment [2] of 67.3 µmol/L.

B14: truncated peptide T10 (from Ca2a) (peptide)
peptide: CLGFGEKCNPSNKCCKSSSLVCSQKHKWCKY
In turn, B14 had an IC50 of inhibition of hNav1.7 currents, whole-cell patch clamp, HEK293T in experiment [2] of 53.5 µmol/L.

B15: truncated peptide T11 (from Ca2a) (peptide)
peptide: CLGFGEKCNPSDKCCKSSSLVCSQKHKWCKY
B15 gave an IC50 of inhibition of hNav1.7 currents, whole-cell patch clamp, HEK293T in experiment [2] of 49.2 µmol/L.

B16: truncated peptide T6 (from Ca2a) (peptide)
peptide: CLGFGEKCNDKCCKSSSVCSQKHKWCKY
B16 registered an IC50 of inhibition of hNav1.7 currents, whole-cell patch clamp, HEK293T in experiment [2] above 100 µmol/L.

B17: truncated peptide T1 (from Ca2a) (peptide)
peptide: CLGFGEKCCCKSSSLVCSQKHKWCKY
The molecule B17 displayed an IC50 of inhibition of hNav1.7 currents, whole-cell patch clamp, HEK293T in experiment [2] of 14.7 µmol/L.

B18: truncated peptide T3 (from Ca2a) (peptide)
peptide: CLGFGEKCNNDKCCKSLVCQKHKWCKY
As to B18, the IC50 of inhibition of hNav1.7 currents, whole-cell patch clamp, HEK293T in experiment [2] was 39.6 µmol/L.

B19: truncated peptide T5 (from Ca2a) (peptide)
peptide: CLGFGEKCNDKCCKSSSLCSQKHKWCKY
In the case of B19, in experiment [2], the IC50 of inhibition of hNav1.7 currents, whole-cell patch clamp, HEK293T is above 100 µmol/L.

B20: truncated peptide T4 (from Ca2a) (peptide)
peptide: CLGFGEKCNDKCCKSSSCSQKHKWCKY
In experiment [2], B20 had an IC50 of inhibition of hNav1.7 currents, whole-cell patch clamp, HEK293T above 100 µmol/L.
